{"source": "paper PMC9245003", "assay_in_all_cases": "SEC-MALS", "key": {"[1]": {"biological_target": "gH/gL 60-mer nanoparticle (gH-C153T-I3 / gL) (Epstein-Barr virus) (UniProt P03231)"}, "[2]": {"biological_target": "gH/gL 7-mer nanoparticle (gH-C153T-IMX313 / gL) (Epstein-Barr virus | Gallus gallus) (UniProt P03231)"}, "[3]": {"biological_target": "gH/gL 24-mer nanoparticle (gH-ferritin / gL) (Epstein-Barr virus | Helicobacter pylori) (UniProt P03231)"}}, "data": [{"substance": "gH/gL 60-mer nanoparticle (gH-C153T-I3 / gL) (from UniProt P03231;P03212) (complex)", "values": [{"measurement": "stoichiometry N", "setting": "[1]", "value": 60}]}, {"substance": "gH/gL 7-mer nanoparticle (gH-C153T-IMX313 / gL) (from UniProt P03231;P03212) (complex)", "values": [{"measurement": "stoichiometry N", "setting": "[2]", "value": 7}]}, {"substance": "gH/gL 24-mer nanoparticle (gH-ferritin / gL) (from UniProt P03231;P03212) (complex)", "values": [{"measurement": "stoichiometry N", "setting": "[3]", "value": 24}]}]}
